Data published in article PMC9302720.

Molecular target: SARS-CoV-2 protein S ectodomain, Wuhan-Hu-1 variant (SARS-CoV-2 | not stated) (UniProt P0DTC2)
Assay: BLI

Substance “N-terminal peptidase domain of human ACE2 (domain or fragment)” has a Kd of 79.3 nM, a koff of 0.0162 s⁻¹ and a kon of 210000 M⁻¹ s⁻¹.
